The values below come from the supplement of paper PMC9112550, “Optimization of the antimicrobial peptide Bac7 by deep mutational scanning” (BMC Biology, 2022).
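Also: peptides expressed intracellularly from a pBAD plasmid library in pooled LB shake-flask culture, induced with 0.3% L-arabinose, DNA abundance read by NGS, three biological replicates, DESeq2 with apeglm shrinkage.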

This data set deals with Escherichia coli TOP10. Nature of the data set: shrunken log2 fold change of peptide-encoding DNA abundance (4.5 h post-induction vs induction); higher = less antimicrobial activity (less host growth inhibition). As to conditions: time post-induction: 4.5 h; library: site-saturation at positions 5, 18, 19, 20.
Consider RRIRMRPPRLPRPRPRPDGFPRP, for which the “shrunken log2 fold change” value amounted to 0.0516.

RRIRVRPPRLPRPRPRPHYLPRP: the “shrunken log2 fold change” value was 0.00696.

Turning to RRIRDRPPRLPRPRPRPHLNPRP, the “shrunken log2 fold change” value was -0.152.

RRIRIRPPRLPRPRPRPQWSPRP: the “shrunken log2 fold change” value was -0.618.

For RRIRHRPPRLPRPRPRPLANPRP, the “shrunken log2 fold change” value was -0.263.

For RRIRCRPPRLPRPRPRPYTRPRP, the “shrunken log2 fold change” value was -0.669.

Consider RRIRPRPPRLPRPRPRPKDHPRP, for which the “shrunken log2 fold change” value was 0.0743.

Regarding RRIRYRPPRLPRPRPRPNCYPRP, the “shrunken log2 fold change” value was -0.0166.

Regarding RRIRDRPPRLPRPRPRPGLGPRP, the “shrunken log2 fold change” value was 0.208.

For the sequence RRIRGRPPRLPRPRPRPLNRPRP, the “shrunken log2 fold change” value amounted to 0.33.

In the case of RRIRMRPPRLPRPRPRPDDGPRP, the “shrunken log2 fold change” value stood at 0.038.

As for RRIRARPPRLPRPRPRPCCPPRP, the “shrunken log2 fold change” value is -0.273.

For the sequence RRIRSRPPRLPRPRPRPREMPRP, the “shrunken log2 fold change” value was found to be 0.159.

Regarding RRIRNRPPRLPRPRPRPQLWPRP, the “shrunken log2 fold change” value was -0.252.

Take RRIRCRPPRLPRPRPRPPNSPRP: the “shrunken log2 fold change” value was 0.0267.

For RRIRERPPRLPRPRPRPTCIPRP, the “shrunken log2 fold change” value is -0.23.

Take RRIRDRPPRLPRPRPRPMFLPRP: the “shrunken log2 fold change” value was determined as 0.0737.

Take RRIRARPPRLPRPRPRPFHPPRP: the “shrunken log2 fold change” value was -0.178.

In the case of RRIRDRPPRLPRPRPRPMNFPRP, the “shrunken log2 fold change” value was -0.285.

In the case of RRIRARPPRLPRPRPRPLDIPRP, the “shrunken log2 fold change” value amounted to 0.0659.

Take RRIRQRPPRLPRPRPRPVLSPRP: the “shrunken log2 fold change” value was -0.0147.

Consider RRIRARPPRLPRPRPRPTCVPRP, for which the “shrunken log2 fold change” value stood at 0.698.

On to RRIRYRPPRLPRPRPRPGHVPRP, for which the “shrunken log2 fold change” value is -0.59.

In the case of RRIRDRPPRLPRPRPRPMTVPRP, the “shrunken log2 fold change” value amounted to 0.047.

As for RRIRWRPPRLPRPRPRPVTDPRP, the “shrunken log2 fold change” value was found to be 0.105.

As to RRIRQRPPRLPRPRPRPSNEPRP, the “shrunken log2 fold change” value was -0.5.

For RRIRTRPPRLPRPRPRPFLCPRP, the “shrunken log2 fold change” value was -0.978.

Turning to RRIRERPPRLPRPRPRPVVCPRP, the “shrunken log2 fold change” value amounted to 0.0991.

Turning to RRIRHRPPRLPRPRPRPHTAPRP, the “shrunken log2 fold change” value was -0.337.

On to RRIRHRPPRLPRPRPRPIGPPRP, for which the “shrunken log2 fold change” value was -0.00697.

In the case of RRIRDRPPRLPRPRPRPVNRPRP, the “shrunken log2 fold change” value was -0.131.

On to RRIRGRPPRLPRPRPRPQMWPRP, for which the “shrunken log2 fold change” value came to 0.891.

As to RRIRKRPPRLPRPRPRPCKEPRP, the “shrunken log2 fold change” value was -0.0743.

As to RRIRSRPPRLPRPRPRPYMRPRP, the “shrunken log2 fold change” value was -0.0496.

For RRIRGRPPRLPRPRPRPWPGPRP, the “shrunken log2 fold change” value turned out to be 0.265.

RRIRLRPPRLPRPRPRPKVRPRP: the “shrunken log2 fold change” value came out at 0.316.

In the case of RRIRLRPPRLPRPRPRPCEKPRP, the “shrunken log2 fold change” value is -0.00674.

Turning to RRIRIRPPRLPRPRPRPACQPRP, the “shrunken log2 fold change” value came out at 0.0224.

For the sequence RRIRMRPPRLPRPRPRPGFYPRP, the “shrunken log2 fold change” value was 0.0157.

For the sequence RRIRARPPRLPRPRPRPRDFPRP, the “shrunken log2 fold change” value worked out at 0.0137.

Consider RRIRVRPPRLPRPRPRPPLCPRP, for which the “shrunken log2 fold change” value was found to be 0.338.

On to RRIRDRPPRLPRPRPRPEQMPRP, for which the “shrunken log2 fold change” value is 0.861.

RRIRFRPPRLPRPRPRPQEMPRP: the “shrunken log2 fold change” value stood at 0.126.

For RRIRTRPPRLPRPRPRPAANPRP, the “shrunken log2 fold change” value came out at 0.0922.

Turning to RRIRERPPRLPRPRPRPTEGPRP, the “shrunken log2 fold change” value was determined as 0.0858.

As to RRIRHRPPRLPRPRPRPYFGPRP, the “shrunken log2 fold change” value was -0.131.

RRIRHRPPRLPRPRPRPMAVPRP: the “shrunken log2 fold change” value amounted to 0.159.

For the sequence RRIRERPPRLPRPRPRPHWWPRP, the “shrunken log2 fold change” value is 0.193.

With RRIRHRPPRLPRPRPRPGEEPRP, the “shrunken log2 fold change” value worked out at 0.03.

With RRIRRRPPRLPRPRPRPQFSPRP, the “shrunken log2 fold change” value was -0.326.

In the case of RRIRNRPPRLPRPRPRPCWAPRP, the “shrunken log2 fold change” value was -0.057.

As to RRIRARPPRLPRPRPRPMMSPRP, the “shrunken log2 fold change” value was 0.186.

Turning to RRIRERPPRLPRPRPRPDDLPRP, the “shrunken log2 fold change” value stood at 0.00911.

On to RRIRPRPPRLPRPRPRPCRHPRP, for which the “shrunken log2 fold change” value was -0.0363.

For RRIRTRPPRLPRPRPRPVRFPRP, the “shrunken log2 fold change” value was found to be 0.0687.

Turning to RRIRNRPPRLPRPRPRPMMTPRP, the “shrunken log2 fold change” value is -0.312.

On to RRIRDRPPRLPRPRPRPQKFPRP, for which the “shrunken log2 fold change” value was -0.0467.

Take RRIRSRPPRLPRPRPRPRLFPRP: the “shrunken log2 fold change” value is 0.376.

Regarding RRIRSRPPRLPRPRPRPWRMPRP, the “shrunken log2 fold change” value is -0.181.

Regarding RRIRFRPPRLPRPRPRPTILPRP, the “shrunken log2 fold change” value is -0.453.

Take RRIRSRPPRLPRPRPRPPIQPRP: the “shrunken log2 fold change” value stood at 0.0395.

Regarding RRIRNRPPRLPRPRPRPEHHPRP, the “shrunken log2 fold change” value is -0.114.

Regarding RRIRMRPPRLPRPRPRPHGEPRP, the “shrunken log2 fold change” value came to 0.365.

For the sequence RRIRQRPPRLPRPRPRPLWNPRP, the “shrunken log2 fold change” value is -0.245.

Regarding RRIRCRPPRLPRPRPRPDCCPRP, the “shrunken log2 fold change” value is -0.206.

Turning to RRIRERPPRLPRPRPRPEWEPRP, the “shrunken log2 fold change” value was -0.0115.

RRIRQRPPRLPRPRPRPQPCPRP: the “shrunken log2 fold change” value was 0.149.

Regarding RRIRGRPPRLPRPRPRPRFPPRP, the “shrunken log2 fold change” value was found to be 0.412.

Regarding RRIRGRPPRLPRPRPRPADNPRP, the “shrunken log2 fold change” value was -0.0713.

For RRIRKRPPRLPRPRPRPNIVPRP, the “shrunken log2 fold change” value was determined as 0.135.

Regarding RRIRWRPPRLPRPRPRPNVVPRP, the “shrunken log2 fold change” value was -0.144.

For RRIRKRPPRLPRPRPRPQSRPRP, the “shrunken log2 fold change” value stood at 0.0866.

In the case of RRIRARPPRLPRPRPRPITFPRP, the “shrunken log2 fold change” value is 0.051.

As for RRIRYRPPRLPRPRPRPSGYPRP, the “shrunken log2 fold change” value was -0.714.

RRIRQRPPRLPRPRPRPRRNPRP: the “shrunken log2 fold change” value turned out to be 0.327.

In the case of RRIRWRPPRLPRPRPRPQKWPRP, the “shrunken log2 fold change” value came out at 0.00891.

As to RRIRVRPPRLPRPRPRPAGNPRP, the “shrunken log2 fold change” value was 0.141.

For RRIRIRPPRLPRPRPRPQVCPRP, the “shrunken log2 fold change” value was 0.0108.

Take RRIRDRPPRLPRPRPRPDNTPRP: the “shrunken log2 fold change” value was -0.103.

As to RRIRDRPPRLPRPRPRPGAYPRP, the “shrunken log2 fold change” value is 0.136.

Turning to RRIRDRPPRLPRPRPRPDYMPRP, the “shrunken log2 fold change” value turned out to be 0.0916.

Take RRIRMRPPRLPRPRPRPKNTPRP: the “shrunken log2 fold change” value is 0.575.

Take RRIRWRPPRLPRPRPRPIIMPRP: the “shrunken log2 fold change” value was -0.241.

Turning to RRIRCRPPRLPRPRPRPPNCPRP, the “shrunken log2 fold change” value was found to be 0.0348.

As for RRIRFRPPRLPRPRPRPFVCPRP, the “shrunken log2 fold change” value is -0.398.

Turning to RRIRVRPPRLPRPRPRPNYAPRP, the “shrunken log2 fold change” value was -0.192.

Turning to RRIRWRPPRLPRPRPRPIKGPRP, the “shrunken log2 fold change” value is -0.197.

In the case of RRIRQRPPRLPRPRPRPSEGPRP, the “shrunken log2 fold change” value was found to be 0.0871.

On to RRIRLRPPRLPRPRPRPLNKPRP, for which the “shrunken log2 fold change” value is -0.264.

With RRIRGRPPRLPRPRPRPETCPRP, the “shrunken log2 fold change” value was 0.613.

With RRIRNRPPRLPRPRPRPFIHPRP, the “shrunken log2 fold change” value was -0.116.

On to RRIRPRPPRLPRPRPRPANDPRP, for which the “shrunken log2 fold change” value is -0.155.

With RRIRWRPPRLPRPRPRPFFGPRP, the “shrunken log2 fold change” value worked out at 0.352.

For RRIRHRPPRLPRPRPRPNTCPRP, the “shrunken log2 fold change” value was -0.53.

For RRIRNRPPRLPRPRPRPLSTPRP, the “shrunken log2 fold change” value was 0.0462.

For RRIRERPPRLPRPRPRPKTCPRP, the “shrunken log2 fold change” value is -0.267.

For RRIRWRPPRLPRPRPRPHVMPRP, the “shrunken log2 fold change” value is -0.254.

For RRIRWRPPRLPRPRPRPVMFPRP, the “shrunken log2 fold change” value is -0.0114.

Take RRIRCRPPRLPRPRPRPACFPRP: the “shrunken log2 fold change” value turned out to be 0.0497.

With RRIRRRPPRLPRPRPRPCPHPRP, the “shrunken log2 fold change” value was -0.27.

In the case of RRIRERPPRLPRPRPRPRWYPRP, the “shrunken log2 fold change” value was -0.464.

For RRIRIRPPRLPRPRPRPWTSPRP, the “shrunken log2 fold change” value is -0.171.

Consider RRIRDRPPRLPRPRPRPTNTPRP, for which the “shrunken log2 fold change” value is -0.142.

RRIRYRPPRLPRPRPRPSDGPRP: the “shrunken log2 fold change” value was -0.327.

As for RRIRTRPPRLPRPRPRPVHTPRP, the “shrunken log2 fold change” value stood at 0.243.

RRIRFRPPRLPRPRPRPHIKPRP: the “shrunken log2 fold change” value is -0.793.

On to RRIRDRPPRLPRPRPRPLCVPRP, for which the “shrunken log2 fold change” value was found to be 0.248.

In the case of RRIRWRPPRLPRPRPRPLCTPRP, the “shrunken log2 fold change” value is 0.106.

Turning to RRIRQRPPRLPRPRPRPSNHPRP, the “shrunken log2 fold change” value was -0.346.

RRIRPRPPRLPRPRPRPGKIPRP: the “shrunken log2 fold change” value was -0.168.

As for RRIRQRPPRLPRPRPRPMRQPRP, the “shrunken log2 fold change” value was -0.0137.

With RRIRMRPPRLPRPRPRPKITPRP, the “shrunken log2 fold change” value was 0.19.

RRIRPRPPRLPRPRPRPGYCPRP: the “shrunken log2 fold change” value is -0.147.

Consider RRIRFRPPRLPRPRPRPFLYPRP, for which the “shrunken log2 fold change” value was -1.04.

For RRIRSRPPRLPRPRPRPEFLPRP, the “shrunken log2 fold change” value was 0.278.

For the sequence RRIRIRPPRLPRPRPRPYRIPRP, the “shrunken log2 fold change” value was -0.485.

Consider RRIRSRPPRLPRPRPRPLRYPRP, for which the “shrunken log2 fold change” value came out at 0.166.

As for RRIRFRPPRLPRPRPRPTFFPRP, the “shrunken log2 fold change” value is -0.169.

Consider RRIRQRPPRLPRPRPRPPAVPRP, for which the “shrunken log2 fold change” value was 0.408.

Turning to RRIRDRPPRLPRPRPRPGSDPRP, the “shrunken log2 fold change” value turned out to be 0.461.

Consider RRIRFRPPRLPRPRPRPISVPRP, for which the “shrunken log2 fold change” value was 0.0197.

Regarding RRIRERPPRLPRPRPRPPGDPRP, the “shrunken log2 fold change” value was 0.619.

Regarding RRIRHRPPRLPRPRPRPEFMPRP, the “shrunken log2 fold change” value is 0.0682.

Turning to RRIRTRPPRLPRPRPRPRIEPRP, the “shrunken log2 fold change” value is 0.453.

Regarding RRIRFRPPRLPRPRPRPIDAPRP, the “shrunken log2 fold change” value is -0.289.
